According to article PMC5763148:

T1: murine CCL17 (mCCL17, TARC) (Mus musculus, UniProt Q9WUZ6 24-93)
T1 sequence: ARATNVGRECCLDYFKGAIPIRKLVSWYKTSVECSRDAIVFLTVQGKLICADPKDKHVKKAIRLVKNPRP


Legend:
Assay in all cases: SPR
[1] = molecular target: T1, murine CCL17 (mCCL17, TARC)
[2] = molecular target: T1, murine CCL17 (mCCL17, TARC); remark: listed apart in the source
[3] = molecular target: human CCL17 (hCCL17, TARC) (Homo sapiens, UniProt Q92583 24-94)
Chain of human CCL17 (hCCL17, TARC) (Q92583 24-94): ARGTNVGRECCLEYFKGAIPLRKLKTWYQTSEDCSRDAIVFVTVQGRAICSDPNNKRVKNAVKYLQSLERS

Binder	binding result [1]	Kd [2]	binding result [3]
GGGGGCGUGUAUGCCAGACCUGCCGAUGUCCUUAAGGUCGACGCUGU (structured_RNA, 2'-fluoro pyrimidines) [control aptamer (scrambled MF35.47)]	no binding	–	–
GGGAGGACGAUGCGGGAGCAGCAUUUGUGGUUUCCCGAUCGCUUCCC (structured_RNA, 2'-fluoro pyrimidines) [MF35.47]	–	7.5 ± 1.5 nM	no binding
GGGUCGUCGCGGGUUGGCUCGUAGAUCGGGCCGGUACAGACGACCC (structured_RNA, 2'-fluoro pyrimidines) [MF11.46]	–	0.9 ± 0.1 nM	no binding
